Molecular target: FGFR1 extracellular domain (human, UniProt P11362 22-376)
Assay: SPR; 1:1 model; ka 2.20E10 1/Ms, kd 54.9 1/s; SPR: Biacore T200, CM5 amine coupling, HBS running buffer (pH, salt, temperature not stated); flow cytometry: PBS, 1% BSA, 0.1% sodium azide, room temperature
Conditions: protein: commercial; stem-loop (Mfold)

FGFR1 extracellular domain, sequence (P11362 22-376): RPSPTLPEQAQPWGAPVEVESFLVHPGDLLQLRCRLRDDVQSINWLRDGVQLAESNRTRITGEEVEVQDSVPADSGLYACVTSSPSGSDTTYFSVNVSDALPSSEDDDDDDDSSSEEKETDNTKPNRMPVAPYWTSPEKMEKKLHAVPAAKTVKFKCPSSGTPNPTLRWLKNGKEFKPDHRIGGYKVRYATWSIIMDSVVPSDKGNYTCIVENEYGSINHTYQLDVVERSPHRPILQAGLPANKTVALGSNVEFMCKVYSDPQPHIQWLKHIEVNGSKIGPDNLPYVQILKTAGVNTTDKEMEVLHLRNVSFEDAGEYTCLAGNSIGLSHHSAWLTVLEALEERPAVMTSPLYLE

**Q.** How did the Kd turn out when GCCGCGTCTTTATGGCTGGGGATGGTGTGGGTTGCGGC (structured_DNA) [FGFR-binder] was run?
**A.** 2.5 nM
